Target: the molecule itself
Test: cross-linking; zero-length disulfide cross-linking by spontaneous oxidation: 20 uM protein reduced in 50 mM Tris-HCl pH 8.0, 100 mM NaCl, 20 mM beta-mercaptoethanol, dialysed overnight at 4 °C into the same buffer without reducing agent; non-reducing against reducing SDS-PAGE, Coomassie staining

| Protein | stoichiometry N |
| --- | --- |
| MuRF1-HD F163C/L276C (in cysteine-null background) (domain or fragment, UniProt Q969Q1 155-328, looked up, disulfide bonds between the introduced cysteines after spontaneous oxidation, MuRF1 (TRIM63) helical domain, residues 155-328 of UniProtKB Q969Q1; not shown: His6, N-terminal, cleaved; SUMO, N-terminal, cleaved) EVAPLQSVCQGQKTELNNSISMLVAGNDRVQTIITQLEDSRRVTKENSHQVKEELSQKFDTLYAILDEKKSELLQRITQEQEKKLSFIEALIQQYQEQLDKSTKLVETAIQSLDEPGGATFCLTAKQLIKSIVEASKGSQLGKTEQGFENMDFFTLDLEHIADALRAIDFGTDE | 2 |
| MuRF1-HD S202C/Q235C (in cysteine-null background) (domain or fragment, UniProt Q969Q1 155-328, looked up, disulfide bonds between the introduced cysteines after spontaneous oxidation, MuRF1 (TRIM63) helical domain, residues 155-328 of UniProtKB Q969Q1; not shown: His6, N-terminal, cleaved; SUMO, N-terminal, cleaved) EVAPLQSVFQGQKTELNNSISMLVAGNDRVQTIITQLEDSRRVTKENCHQVKEELSQKFDTLYAILDEKKSELLQRITQECEKKLSFIEALIQQYQEQLDKSTKLVETAIQSLDEPGGATFLLTAKQLIKSIVEASKGSQLGKTEQGFENMDFFTLDLEHIADALRAIDFGTDE | 2 |
| MuRF1-HD V184C/L253C (in cysteine-null background) (domain or fragment, UniProt Q969Q1 155-328, looked up, disulfide bonds between the introduced cysteines after spontaneous oxidation, MuRF1 (TRIM63) helical domain, residues 155-328 of UniProtKB Q969Q1; not shown: His6, N-terminal, cleaved; SUMO, N-terminal, cleaved) EVAPLQSVFQGQKTELNNSISMLVAGNDRCQTIITQLEDSRRVTKENSHQVKEELSQKFDTLYAILDEKKSELLQRITQEQEKKLSFIEALIQQYQEQCDKSTKLVETAIQSLDEPGGATFLLTAKQLIKSIVEASKGSQLGKTEQGFENMDFFTLDLEHIADALRAIDFGTDE | 2 |

Target: the molecule itself
Test: PELDOR (pulsed EPR, DEER); MTSSL-labelled protein, 100 to 200 uM MuRF1 dimer, deuterated Hepes pH 8.0/NaCl buffer mixed 1:1 with D8-glycerol, flash frozen; Q-band, 50 K; distances between labels across the protomers of the dimer

| Protein | binding result |
| --- | --- |
| MuRF1-HD E192C (cysteine-null background), MTSSL-labelled (domain or fragment, UniProt Q969Q1 155-328, looked up, MTSSL spin label (R1) on cysteine 192, MuRF1 (TRIM63) helical domain, residues 155-328 of UniProtKB Q969Q1; also called E192R1; not shown: His6, N-terminal, cleaved; SUMO, N-terminal, cleaved) EVAPLQSVFQGQKTELNNSISMLVAGNDRVQTIITQLCDSRRVTKENSHQVKEELSQKFDTLYAILDEKKSELLQRITQEQEKKLSFIEALIQQYQEQLDKSTKLVETAIQSLDEPGGATFLLTAKQLIKSIVEASKGSQLGKTEQGFENMDFFTLDLEHIADALRAIDFGTDE | binds |
| MuRF1-HD K212C (cysteine-null background), MTSSL-labelled (domain or fragment, UniProt Q969Q1 155-328, looked up, MTSSL spin label (R1) on cysteine 212, MuRF1 (TRIM63) helical domain, residues 155-328 of UniProtKB Q969Q1; also called K212R1; not shown: His6, N-terminal, cleaved; SUMO, N-terminal, cleaved) EVAPLQSVFQGQKTELNNSISMLVAGNDRVQTIITQLEDSRRVTKENSHQVKEELSQCFDTLYAILDEKKSELLQRITQEQEKKLSFIEALIQQYQEQLDKSTKLVETAIQSLDEPGGATFLLTAKQLIKSIVEASKGSQLGKTEQGFENMDFFTLDLEHIADALRAIDFGTDE | binds |
| MuRF1-HD K297C (cysteine-null background), MTSSL-labelled (domain or fragment, UniProt Q969Q1 155-328, looked up, MTSSL spin label (R1) on cysteine 297, MuRF1 (TRIM63) helical domain, residues 155-328 of UniProtKB Q969Q1; also called K297R1; not shown: His6, N-terminal, cleaved; SUMO, N-terminal, cleaved) EVAPLQSVFQGQKTELNNSISMLVAGNDRVQTIITQLEDSRRVTKENSHQVKEELSQKFDTLYAILDEKKSELLQRITQEQEKKLSFIEALIQQYQEQLDKSTKLVETAIQSLDEPGGATFLLTAKQLIKSIVEASKGSQLGCTEQGFENMDFFTLDLEHIADALRAIDFGTDE | binds |
| MuRF1-HD R230C (cysteine-null background), MTSSL-labelled (domain or fragment, UniProt Q969Q1 155-328, looked up, MTSSL spin label (R1) on cysteine 230, MuRF1 (TRIM63) helical domain, residues 155-328 of UniProtKB Q969Q1; also called R230R1; not shown: His6, N-terminal, cleaved; SUMO, N-terminal, cleaved) EVAPLQSVFQGQKTELNNSISMLVAGNDRVQTIITQLEDSRRVTKENSHQVKEELSQKFDTLYAILDEKKSELLQCITQEQEKKLSFIEALIQQYQEQLDKSTKLVETAIQSLDEPGGATFLLTAKQLIKSIVEASKGSQLGKTEQGFENMDFFTLDLEHIADALRAIDFGTDE | binds |
| MuRF1-HD R320C (cysteine-null background), MTSSL-labelled (domain or fragment, UniProt Q969Q1 155-328, looked up, MTSSL spin label (R1) on cysteine 320, MuRF1 (TRIM63) helical domain, residues 155-328 of UniProtKB Q969Q1; also called R320R1; E320R1 (as printed once); not shown: His6, N-terminal, cleaved; SUMO, N-terminal, cleaved) EVAPLQSVFQGQKTELNNSISMLVAGNDRVQTIITQLEDSRRVTKENSHQVKEELSQKFDTLYAILDEKKSELLQRITQEQEKKLSFIEALIQQYQEQLDKSTKLVETAIQSLDEPGGATFLLTAKQLIKSIVEASKGSQLGKTEQGFENMDFFTLDLEHIADALCAIDFGTDE | binds |
| MuRF1-HD E222C (cysteine-null background), MTSSL-labelled (domain or fragment, UniProt Q969Q1 155-328, looked up, MTSSL spin label (R1) on cysteine 222, MuRF1 (TRIM63) helical domain, residues 155-328 of UniProtKB Q969Q1; also called E222R1; not shown: His6, N-terminal, cleaved; SUMO, N-terminal, cleaved) EVAPLQSVFQGQKTELNNSISMLVAGNDRVQTIITQLEDSRRVTKENSHQVKEELSQKFDTLYAILDCKKSELLQRITQEQEKKLSFIEALIQQYQEQLDKSTKLVETAIQSLDEPGGATFLLTAKQLIKSIVEASKGSQLGKTEQGFENMDFFTLDLEHIADALRAIDFGTDE | binds |
| MuRF1-HD E200C (cysteine-null background), MTSSL-labelled (domain or fragment, UniProt Q969Q1 155-328, looked up, MTSSL spin label (R1) on cysteine 200, MuRF1 (TRIM63) helical domain, residues 155-328 of UniProtKB Q969Q1; also called E200R1; not shown: His6, N-terminal, cleaved; SUMO, N-terminal, cleaved) EVAPLQSVFQGQKTELNNSISMLVAGNDRVQTIITQLEDSRRVTKCNSHQVKEELSQKFDTLYAILDEKKSELLQRITQEQEKKLSFIEALIQQYQEQLDKSTKLVETAIQSLDEPGGATFLLTAKQLIKSIVEASKGSQLGKTEQGFENMDFFTLDLEHIADALRAIDFGTDE | binds |
| MuRF1-HD E313C (cysteine-null background), MTSSL-labelled (domain or fragment, UniProt Q969Q1 155-328, looked up, MTSSL spin label (R1) on cysteine 313, MuRF1 (TRIM63) helical domain, residues 155-328 of UniProtKB Q969Q1; also called E313R1; not shown: His6, N-terminal, cleaved; SUMO, N-terminal, cleaved) EVAPLQSVFQGQKTELNNSISMLVAGNDRVQTIITQLEDSRRVTKENSHQVKEELSQKFDTLYAILDEKKSELLQRITQEQEKKLSFIEALIQQYQEQLDKSTKLVETAIQSLDEPGGATFLLTAKQLIKSIVEASKGSQLGKTEQGFENMDFFTLDLCHIADALRAIDFGTDE | binds |
| MuRF1-HD doubly labelled at E192R1 and R320R1 (cysteine-null background) (domain or fragment, UniProt Q969Q1 155-328, looked up, MTSSL spin label (R1) on cysteines 192 and 320, MuRF1 (TRIM63) helical domain, residues 155-328 of UniProtKB Q969Q1; The double mutant is told only as labels placed at E192R1 and R320R1 simultaneously; the cysteine-null background follows from the methods; also called double-labeled sample; not shown: His6, N-terminal, cleaved; SUMO, N-terminal, cleaved) EVAPLQSVFQGQKTELNNSISMLVAGNDRVQTIITQLCDSRRVTKENSHQVKEELSQKFDTLYAILDEKKSELLQRITQEQEKKLSFIEALIQQYQEQLDKSTKLVETAIQSLDEPGGATFLLTAKQLIKSIVEASKGSQLGKTEQGFENMDFFTLDLEHIADALCAIDFGTDE | binds |
| MuRF1-HD E243C (cysteine-null background), MTSSL-labelled (domain or fragment, UniProt Q969Q1 155-328, looked up, MTSSL spin label (R1) on cysteine 243, MuRF1 (TRIM63) helical domain, residues 155-328 of UniProtKB Q969Q1; also called E243R1; not shown: His6, N-terminal, cleaved; SUMO, N-terminal, cleaved) EVAPLQSVFQGQKTELNNSISMLVAGNDRVQTIITQLEDSRRVTKENSHQVKEELSQKFDTLYAILDEKKSELLQRITQEQEKKLSFICALIQQYQEQLDKSTKLVETAIQSLDEPGGATFLLTAKQLIKSIVEASKGSQLGKTEQGFENMDFFTLDLEHIADALRAIDFGTDE | binds |
